Substrate: CC(=O)Oc1ccc([N+](=O)[O-])cc1
Assay: purified protein
Format: biochemical, Pseudideonella sakaiensis
Conditions: 50 mM Na2HPO4 pH 7.5, 30 °C, 5% v/v DMSO, 10 nM enzyme, 0-5.0 mM substrate

B1: IsPETase-WT (Pseudideonella sakaiensis) (protein)
chain: QTNPYARGPNPTAASLEASAGPFTVRSFTVSRPSGYGAGTVYYPTNAGGTVGAIAIVPGYTARQSSIKWWGPRLASHGFVVITIDTNSTLDQPSSRSSQQMAALRQVASLNGTSSSPIYGKVDTARMGVMGWSMGGGGSLISAANNPSLKAAAPQAPWDSSTNFSSVTVPTLIFACENDSIAPVNSSALPIYDSMSRNAKQFLEINGGSHSCANSGNSNQALIGKKGVAWMKRFMDNDTRYSTFACENPNSTRVSDFRTANCS
notes: linear wild-type enzyme, synthetic gene in pET-28a(+) or pET-21b(+), E. coli Shuffle T7 Express, Ni-NTA and SEC; monomer
- Km: 2700 ± 300 µM

Source: article PMC9870871, “Investigating the effects of cyclic topology on the performance of a plastic degrading enzyme for polyethylene terephthalate degradation” (Scientific Reports, 2023)
